From patent US20030153520A1 (published 2003) come the findings set out here.

Test [1] has as its target endogenous SNAP25 (rat brain extract; PC12 cells) (rat, UniProt P60881 1-206). Nature of the test: co-immunoprecipitation with anti-SNAP25 from Triton X-100 extract of rat brain. As to the method: FIG. 4A illustrates that TI-VAMP forms a complex with SNAP25 in Triton X100 extract of rat brain. Immunoprecipitation with anti-SNAP25 antibodies was performed from Triton X100 soluble extract of rat brain as described in the Materials and Methods section of example 1 and immunoprecipitated proteins were detected by western blot analysis with the indicated antibodies (synaptobrevin 2, Sb2: cellubrevin, Cb: U, unbound, B: bound to anti-SNAP25 immunobeads). The bound fraction corresponded to a 65-fold enrichment compared to unbound. The SNAP25 TI-VAMP complex seemed more abundant than the SNAP25 synaptobrevin 2 one but this may only reflect a lower expression level of TI-VAMP compared to synaptobrevin 2 in the adult brain.
Immunoprecipitation: Immunoprecipitation from rat brain was performed using a Triton X-100 soluble membrane fraction prepared as follows: two adult rat brains were homogenized, with a glass teflon homogenizer (9 strokes at 900 rpm) in 25 ml of 0.32M sucrose containing a protease inhibitor cocktail. All the steps were carried out at 4° C. After 10 min centrifugation at 800 g the supernatant was centrifuged at 184000 g for 1 hour, obtaining a cytosolic and a membrane fraction in the supernatant and the pellet, respectively. […]

Test [2] addresses T1, 6xhis-tagged SNAP25A (UniProt P60881-2 1-206).
T1 construct: also called 6xhisSNAP25; 6xhis-SNAP25; not shown: 6xhis tag
Kind of test: overlay assay. The method, then: The binding of GST, GST-Cyt-TIVAMP, GST-ter-TIVAMP, or GST-CC-TIVAMP was measured by overlay over immobilized 6xhis-SNAP25 (indicated by the arrow). GST-CC-TIVAMP bound efficiently to immobilized 6xhis-SNAP25. Little binding of GST-Cyt-TIVAMP and none of GST and GST-Nter-TIVAMP were observed.
Overlay assay: The corresponding GST fusion proteins and GST alone were produced and purified as previously described, 6xhis-tagged SNAP25A (6xhisSNAP25, bacterial strain is available from G. Schiavo, ICRF, London, UK) was purified. 6xhisSNAP25 was run on SDS-PAGE and western blotted onto Immobilon-P membrane (Millipore, Bedford, Mass.). The amount of 6xhisSNAP25 corresponds to 1.25 μg/mm of membrane, 4 mm strips of the membrane were cut and incubated in 150 mM NaCl, 5% non fat dry milk. 50 mM phosphate pH7.5 buffer for 1 hour at room temperature. The strips were then incubated with 10 nM the GST-fusion proteins overnight at 4° C. in buffer B (3% BSA, 0.1%, Tween20 20 mM Tris pH: 7.5) containing 1 mM DTT. The strips were rinsed three times in buffer B at room temperature, incubated with anti-GST antibodies in butfer B for 1 hour, rinsed in buffer B three times and incubated with alkaline phosphatase-coupled sheep anti-mouse antibodies. The detection as carried out simultaneously for all the strips, for the same time, using a kit from Promega (Madison, Wis.).

Chain of endogenous SNAP25 (rat brain extract; PC12 cells) (P60881 whole entry): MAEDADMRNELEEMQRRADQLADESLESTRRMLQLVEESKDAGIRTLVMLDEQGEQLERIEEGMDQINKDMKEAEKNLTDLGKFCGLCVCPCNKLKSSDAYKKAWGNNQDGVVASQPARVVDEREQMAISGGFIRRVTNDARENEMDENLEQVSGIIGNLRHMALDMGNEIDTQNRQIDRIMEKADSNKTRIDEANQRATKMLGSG
T1 sequence (P60881 other isoform, or with tags, fused parts or gaps limits assumed): as the sequence (P60881 whole entry) above, with E58D, I60V, D65N, Q66H, K69Q, T79K, F84C, C88F, V89I counted along it

B1: endogenous cellubrevin (rat brain) (other, UniProt P63025 1-103, looked up)
chain: MSTGVPSGSSAATGSNRRLQQTQNQVDEVVDIMRVNVDKVLERDQKLSELDDRADALQAGASQFETSAAKLKRKYWWKNCKMWAIGISVLVIIVIIIIVWCVS
notes: also called Cb
B1: in test [1], the binding result is given as “no binding”.

B2: GST-Cyt-TIVAMP (other)
chain: MAILFAVVARGTTILAKHAWCGGNFLEVTEQILAKIPSENNKLTYSHGNYLFHYICQDRIVYLCITDDDFERSRAFNFLNEIKKRFQTTYGSRAQTALPYAMNSEFSSVLAAQLKHHSENKGLDKVMETQAQVDELKGIMVRNIDLVAQRGERLELLIDKTENLVDSSVTFKTTSRNLARAMCMKNLK
notes: also called full cytoplasmic domain of TI-VAMP fused to GST; not shown: glutathione S-transferase (GST) tag encoded by the pGEX4T vector (Pharmacia)
As to B2, the binding result in test [2] was “binds”.
